Publication PMC3651781

T1: His-Dis3l2 D389N (mouse, UniProt Q8CI75 1-870, D389N)
T1 sequence: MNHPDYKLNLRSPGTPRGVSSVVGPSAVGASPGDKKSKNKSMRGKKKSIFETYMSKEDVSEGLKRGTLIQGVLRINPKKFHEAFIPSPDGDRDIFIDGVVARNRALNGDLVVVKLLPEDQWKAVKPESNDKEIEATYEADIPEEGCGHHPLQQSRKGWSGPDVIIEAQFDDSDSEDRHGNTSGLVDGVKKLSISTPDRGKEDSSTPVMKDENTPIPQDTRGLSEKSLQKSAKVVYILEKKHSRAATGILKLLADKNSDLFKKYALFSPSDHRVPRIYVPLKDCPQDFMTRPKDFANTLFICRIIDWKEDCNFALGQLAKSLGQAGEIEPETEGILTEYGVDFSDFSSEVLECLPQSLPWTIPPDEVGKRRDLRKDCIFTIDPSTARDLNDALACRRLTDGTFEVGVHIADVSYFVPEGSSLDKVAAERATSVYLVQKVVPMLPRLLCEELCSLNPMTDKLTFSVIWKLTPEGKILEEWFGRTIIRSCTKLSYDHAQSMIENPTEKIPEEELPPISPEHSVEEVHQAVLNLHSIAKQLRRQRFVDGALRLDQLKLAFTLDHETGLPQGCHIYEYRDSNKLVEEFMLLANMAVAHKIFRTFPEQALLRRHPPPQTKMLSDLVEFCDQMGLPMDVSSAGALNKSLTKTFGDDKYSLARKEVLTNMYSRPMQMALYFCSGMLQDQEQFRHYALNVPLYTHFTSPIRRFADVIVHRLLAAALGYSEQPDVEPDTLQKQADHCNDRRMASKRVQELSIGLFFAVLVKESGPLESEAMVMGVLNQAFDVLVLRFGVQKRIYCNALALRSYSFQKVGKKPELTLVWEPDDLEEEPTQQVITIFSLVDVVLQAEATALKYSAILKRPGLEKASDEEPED

B1: mmu-pre-let-7a-1+14U (structured_RNA)
RNA: UGAGGUAGUAGGUUGUAUAGUUUUAGGGUCACACCCACCACUGGGAGAUAACUAUACAAUCUACUGUCUUUCCUUUUUUUUUUUUUU
B2: mmu-pre-let-7a-1 (structured_RNA)
RNA: UGAGGUAGUAGGUUGUAUAGUUUUAGGGUCACACCCACCACUGGGAGAUAACUAUACAAUCUACUGUCUUUCC

Molecular target: T1, His-Dis3l2 D389N
Experiment: EMSA

Binder | binding result
B1 | binds
B2 | no binding
